Article PMC11784345

These sequences were tested on MBP-His8-MilO (Streptoverticillium rimofaciens (Streptomyces rimofaciens)) (assay: fluorescence polarization). Details: EMSA: 20 mM Tris-HCl pH 8.0, 100 mM KCl, 2.5 mM MgCl2, 0.2 mM DTT, 10% glycerol, salmon sperm DNA, 30 C 10 min (Fig 5 legend: room temperature); FP: 20 mM Tris ….

Binding signal (fold decrease in affinity vs OBSWT), 3:
TGTCGCCCGGTCGTGTCGCTCGGTGGCGCCTATCAACGCCCCGG (double strand) [OBSM3]
TGTCGCCCGGTCGTATTATCTAACGGTGTCCGCCGGTGCCCCGG (double strand) [OBSM2]
CACTATTTAATCGTGTCGCTCGGTGGTGTCCGCCGGTGCCCCGG (double strand) [OBSM1]
